Measured values reported in patent publication US20220220224A1 (Hoffmann-La Roche, published 2022).

Assays:
[1] = target: T1, human FolR1 expressed on cells (HeLa, SKOV3, HT-29, transfected HEK cells) (human, UniProt P15328 25-234); assay: cell-based or functional assay
[2] = target: T1, human FolR1 expressed on cells (HeLa, …); assay: cell-based or functional assay; remark: listed apart in the source
[3] = target: T2, recombinant biotinylated monomeric Fc fusion of human Folate Receptor 1 (huFolR1 ECD-AcTev-Fcknob-Avi tag … (human, UniProt P0DOX5 223-449 = IgG part, biotin on the C-terminal Avi tag)); assay: SPR Biacore, avidity (bivalent)
T2 construct: also called huFolR1-Fc; human FolR1-Fc

[4] = target: T2, recombinant biotinylated monomeric Fc …; assay: SPR Biacore, affinity (monovalent)
[5] = target: T2, recombinant biotinylated monomeric Fc …; assay: SPR Biacore, affinity (monovalent), antibody captured via anti-Fab
Protocol: (§1) All SPR experiments were performed on a Biacore T200 at 25° C. with HBS-EP as running buffer (0.01 M HEPES pH 7.4, 0.15 M NaCl, 3 mM EDTA, 0.005% Surfactant P20, Biacore, GE Healthcare). The molecules used for affinity and avidity determination are described in Table 45.
(§2) For affinity measurement, direct coupling of around 12000 resonance units (RU) of the anti-human Fab specific antibody (Fab capture kit, GE Healthcare) was performed on a CM5 chip at pH 5.0 using the standard amine coupling kit (GE Healthcare). Anti-FolR1 T cell bispecifics were captured at 20 nM with a flow rate of 10 μl/min for 40 sec, the reference flow cell was left without capture. […] The dissociation phase was monitored for 300 s and triggered by switching from the sample solution to HBS-EP. The chip surface was regenerated after every cycle using a double injection of 60 sec 10 mM Glycine-HCl pH 2.1. Bulk refractive index differences were corrected for by subtracting the response obtained on the reference flow cell 1. The affinity constants for the interactions were derived from the rate constants by fitting to a 1:1 Langmuir binding using the Bia Evaluation software (GE Healthcare). For low affinity kinetics with association and dissociation phases too fast to be fitted by the 1:1 Langmuir binding model, the steady state analysis model was applied using the Bia Evaluation software (GE Healthcare). The steady state analysis gives the KD of the binding reaction at equilibrium.

[6] = target: T2, recombinant biotinylated monomeric Fc …; assay: SPR Biacore, avidity (bivalent, apparent KD), antigen-Fc on SA chip
Protocol: as §1
(§3) Recombinant biotinylated monomeric Fc fusions of human, cynomolgus and murine Folate Receptor 1 (FolR1-Fc) were directly coupled on a SA chip using the standard coupling instruction (Biacore, GE Healthcare). The immobilization level was about 200-300 RU. […] The dissociation was monitored for 240 or 600 seconds. The chip surface was regenerated after every cycle using a double injection of 30 sec 10 mM Glycine-HCl pH 1.5. Bulk refractive index differences were corrected for by subtracting the response obtained on reference flow cell immobilized with recombinant biotinylated murine IL2R Fc fusion (unrelated Fc fused receptor). The binding curves resulting from the bivalent binding of the T cell bispecifics were approximated to a 1:1 Langmuir binding (even though it is a 1:2 binding) and fitted with that model to get an apparent KD representing the avidity of the bivalent binding. The apparent avidity constants for the interactions were derived from the rate constants of the fitting using the Bia Evaluation software (GE Healthcare).

[7] = target: T3, recombinant biotinylated monomeric Fc fusion of cynomolgus Folate Receptor 1 (cy FolR1 ECD-AcTev-Fcknob-Avi … (cynomolgus, UniProt P0DOX5 223-449 = IgG part, biotin on the C-terminal Avi tag)); assay: as above
T3 construct: also called cyFolR1-Fc; cyno FolR1
Protocol: as §1, §3

[8] = target: T3, recombinant biotinylated monomeric Fc …; assay: SPR Biacore, affinity (monovalent), antibody captured via anti-Fab, steady state analysis
Protocol: as §1, §2

[9] = target: T4, human FolR2 on transfected HEK cells (human, UniProt P14207 17-230); assay: flow cytometry on transfected HEK cells
T4 construct: whole, on cells

[10] = target: T5, recombinant biotinylated monomeric Fc fusion of murine Folate Receptor 1 (mu FolR1 ECD-AcTev-Fcknob-Avitag … (murine, UniProt P0DOX5 223-449 = IgG part, biotin on the C-terminal Avi tag)); assay: SPR Biacore, single injection on immobilized antigen-Fc
T5 construct: also called muFolR1-Fc; murine FolR1
In short: (§4)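 Biacore T200 at 25 °C in HBS-EP (HEPES pH 7.4). Biotinylated FolR-Fc fusions captured on SA chip at about 300-400 RU. IgGs injected once at 500 nM for 60 s to assess cross-reactivity and specificity.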

[11] = target: T6, recombinant biotinylated monomeric Fc fusion of human Folate Receptor 2 (hu FolR2 ECD-AcTev-Fcknob-Avi tag … (human, UniProt P0DOX5 223-449 = IgG part, biotin on the C-terminal Avi tag)); assay: as above
T6 construct: also called FolR2-Fc
In short: as §4

[12] = target: T7, recombinant biotinylated monomeric Fc fusion of human Folate Receptor 3 (hu FolR3 ECD-AcTev-Fcknob-Avi tag … (human, UniProt P0DOX5 223-449 = IgG part, biotin on the C-terminal Avi tag)); assay: as above
T7 construct: also called FolR3-Fc
In short: as §4

[13] = target: T2, recombinant biotinylated monomeric Fc …; assay: as above
In short: as §4

[14] = target: T3, recombinant biotinylated monomeric Fc …; assay: as above
In short: as §4

[15] = target: T2, recombinant biotinylated monomeric Fc …; assay: SPR ProteOn, Fab analyte on immobilized antigen-Fc
Protocol: (§5) Immobilization of antigens (ligand): Recombinant antigens were diluted with PBST (10 mM phosphate, 150 mM sodium chloride pH 7.4, 0.005% Tween 20) to 10 μg/ml, then injected at 30 μl/minute in vertical orientation. Injection of analytes: For ‘one-shot kinetics’ measurements, injection direction was changed to horizontal orientation, two-fold dilution series of purified Fab (varying concentration ranges) were injected simultaneously along separate channels 1-5, with association times of 150 or 200 s, and dissociation times of 200 or 600 s, respectively. Buffer (PBST) was injected along the sixth channel to provide an “in-line” blank for referencing. Association rate constants (kₒₙ) and dissociation rate constants (koff) were calculated using a simple one-to-one Langmuir binding model in ProteOn Manager v3.1 software by simultaneously fitting the association and dissociation sensorgrams. The equilibrium dissociation constant (KD) was calculated as the ratio koff/kₒₙ.

[16] = target: T3, recombinant biotinylated monomeric Fc …; assay: SPR ProteOn, Fab analyte on immobilized antigen-Fc
Protocol: as §5

[17] = target: T5, recombinant biotinylated monomeric Fc …; assay: SPR ProteOn, Fab analyte on immobilized antigen-Fc
Protocol: as §5

[18] = target: T6, recombinant biotinylated monomeric Fc …; assay: SPR ProteOn, Fab analyte on immobilized antigen-Fc
Protocol: as §5

[19] = target: T7, recombinant biotinylated monomeric Fc …; assay: SPR ProteOn, Fab analyte on immobilized antigen-Fc
Protocol: as §5

T1 sequence (P15328 25-234): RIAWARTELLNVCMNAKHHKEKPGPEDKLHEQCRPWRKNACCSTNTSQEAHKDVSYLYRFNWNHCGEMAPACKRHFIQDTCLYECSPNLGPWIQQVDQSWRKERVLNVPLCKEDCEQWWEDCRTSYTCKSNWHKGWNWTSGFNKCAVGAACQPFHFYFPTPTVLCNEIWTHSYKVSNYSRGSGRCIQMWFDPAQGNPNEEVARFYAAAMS
T4 sequence (P14207 17-230): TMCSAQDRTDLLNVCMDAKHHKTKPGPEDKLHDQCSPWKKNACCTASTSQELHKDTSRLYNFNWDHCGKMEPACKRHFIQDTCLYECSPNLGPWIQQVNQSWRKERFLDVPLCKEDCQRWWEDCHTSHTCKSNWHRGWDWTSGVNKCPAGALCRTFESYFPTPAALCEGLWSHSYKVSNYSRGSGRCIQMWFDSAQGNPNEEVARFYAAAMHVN

B1: 16D5 G49S/K53A TCB (2+1 inverted, common light chain) (bispecific antibody, V domains shown)
VH 1: not shown
VL: QTVVTQEPSLTVSPGGTVTLTCGSSTGAVTTSNYANWVQQKPGQAPRGLIGGTNARAPGTPARFSGSLLGGKAALTLSGVQPEDEAEYYCALWYSNLWVFGGGTKLTVL
VH 2: not shown
EC50 of T-cell killing of Hela, 24 h [1]: 0.0044 nM
EC50 of T-cell killing of SKov-3, 24 h [1]: 1.7 nM
EC50 of T-cell killing of HT-29, 48 h [2]: 1.79 nM
EC50 of T-cell killing of Hela, 48 h [2]: 0.0005 nM
EC50 of T-cell killing of SKov-3, 48 h [2]: 0.95 nM
fold lower avidity than 16D5 WT (3 nM) [3]: 13 fold
fold lower affinity than 16D5 WT (57 nM) [4]: 30 fold
Kd [5]: 1700 nM
koff [5]: 0.0159 s⁻¹
kon [5]: 9170 M⁻¹ s⁻¹
Kd [6]: 40 nM
koff [6]: 0.00586 s⁻¹
kon [6]: 132000 M⁻¹ s⁻¹
Kd [7]: 70 nM
koff [7]: 0.0256 s⁻¹
kon [7]: 373000 M⁻¹ s⁻¹
Kd [8]: 1900 nM

B2: 16D5 IgG (antibody, V domains shown)
VH: not shown
VL: QAVVTQEPSLTVSPGGTVTLTCGSSTGAVTTSNYANWVQEKPGQAFRGLIGGTNKRAPGTPARFSGSLLGGKAALTLSGAQPEDEAEYYCALWYSNLWVFGGGTKLTVL
notes: human IgG1
binding result [9]: no binding
binding result [10]: no binding (tested: 500 nM)
binding result [11]: no binding (tested: 500 nM)
binding result [12]: no binding (tested: 500 nM)

B3: 20G6 IgG (antibody, V domains shown)
VH: QVQLVQSGAEVKKPGASVKVSCKASGYTFTSYYMHWVRQAPGQGLEWMGIINPSGGSTSYAQKFQGRVTMTRDTSTSTVYMELSSLRSEDTAVYYCARGEWIRYYHFDYWGQGTLVTVSS
VL: QAVVTQEPSLTVSPGGTVTLTCGSSTGAVTTSNYANWVQEKPGQAFRGLIGGTNKRAPGTPARFSGSLLGGKAALTLSGAQPEDEAEYYCALWYSNLWVFGGGTKLTVL
notes: human IgG1
binding result [13]: no binding (tested: 500 nM)
binding result [14]: no binding (tested: 500 nM)
binding result [11]: no binding (tested: 500 nM)
binding result [12]: no binding (tested: 500 nM)

B4: 19H3 IgG (antibody, V domains shown)
VH: QVQLVQSGAEVKKPGASVKVSCKASGYTFTSYYMHWVRQAPGQGLEWMGIINPSGGSTSYAQKFQGRVTMTRDTSTSTVYMELSSLRSEDTAVYYCARTGWSRWGYMDYWGQGTLVTVSS
VL: QAVVTQEPSLTVSPGGTVTLTCGSSTGAVTTSNYANWVQEKPGQAFRGLIGGTNKRAPGTPARFSGSLLGGKAALTLSGAQPEDEAEYYCALWYSNLWVFGGGTKLTVL
notes: human IgG1
binding result [13]: no binding (tested: 500 nM)
binding result [14]: no binding (tested: 500 nM)
binding result [11]: no binding (tested: 500 nM)
binding result [12]: no binding (tested: 500 nM)

B5: 36F2 Fab (Fab, V domains shown)
VH: QVQLVQSGAEVKKPGASVKVSCKASGYTFTSYYMHWVRQAPGQGLEWMGIINPSGGSTSYAQKFQGRVTMTHDTSTSTVYMELSSLRSEDTAVYYCARSFFTGFHLDYWGQGTLVTVSS
VL: EIVLTQSPGTLSLSPGERATLSCRASQSVSSSYLAWYQQKPGQAPRLLIYGASSRATGIPDRFSGSGSGTDFTLTISRLEPEDFAVYYCQQYTNEHYYTFGQGTKVEIK
notes: bacterial Fab
Kd [15]: 1810 nM
Kd [16]: 1640 nM
Kd [17]: 737 nM
binding result [18]: no binding
binding result [19]: no binding

B6: 9D11 Fab (Fab, V domains shown)
VH: QVQLVQSGAEVKKPGASVKVSCKASGYTFTSYYMHWVRQAPGQGLEWMGIINPSGGPTSYAQKFQGRVTMTRDTSTSTVYMELSSLRSEDTAVYYCARGDFAWLDYWGQGTLVTVSS
VL: not shown
notes: bacterial Fab
Kd [15]: 8.64 nM
Kd [16]: 5.29 nM
binding result [17]: no binding
binding result [18]: no binding
binding result [19]: no binding

B7: 14E4 Fab (Fab, V domains shown)
VH: not shown
VL: EIVLTQSPGTLSLSPGERATLSCRASQSVSSSYLAWYQQKPGQAPRLLIYGASSRATGIPDRFSGSGSGTDSTLTISRLEPEDFAVYYCQQPTSSPITFGQGTKVEIK
notes: bacterial Fab
binding result [15]: no binding
binding result [16]: no binding
binding result [18]: no binding
binding result [19]: no binding
